Test results as given in patent US20240279344A1 (CDR LIFE, published 2024).
Numbering of substitutions follows the chain as printed. Values joined by “and” are separate entries in the source; they are usually repeats but may differ in a detail not shown here. Equal values may be shown once.

B1: M1116 (bispecific antibody, V domains shown)
VH: EVQLLESGGGSVQPGGSLRLSCTVSGFSLSNYAMSWVRQAPGKGLEWIGIVSSGGTTYYASWAKGRFTISKDTSKNTVYLQMNSLRAEDTASYYCAKDLYYGPTTYSAANLWGQGTSVTVSS
VL: SYELTQPPSVSVSPGQTASITCTADTLSRSYASWYQQKPGQSPVLVIYRDTSRPSGIPERFSGSNSGNTATLTISGTQAMDEADYYCATRPSSGSNFQLFGGGTKLTVL
notes: Variant of humanized M0763; tested in SPR as anti-CD3 Fab x anti-MAGE-A4 scFv bispecific
B2: M1135 (bispecific antibody, V domains shown)
VH: B1 VH with G55A, A109F
VL: B1 VL
notes: as for B1
B3: M1110 (bispecific antibody, V domains shown)
VH: B1 VH with P103A, A109F
VL: B1 VL
notes: as for B1
B4: M1107 (bispecific antibody, V domains shown)
VH: B1 VH with Y100A, A109F
VL: B1 VL
notes: as for B1
B5: M1037 (bispecific antibody, V domains shown)
VH: B1 VH with V2S, L4V, W47Y, S107H, A108D, A109L
VL: B1 VL with R90S, P91D, S92G
notes: as for B1
B6: M1129 (bispecific antibody, V domains shown)
VH: B1 VH with A109F
VL: B1 VL with L99A
notes: as for B1
B7: M1113 (bispecific antibody, V domains shown)
VH: B1 VH with Y106A, A109F
VL: B1 VL
notes: as for B1
B8: M1097 (bispecific antibody, V domains shown)
VH: B1 VH with D98N, L99V, A109F
VL: B1 VL
notes: as for B1
B9: M1087 (bispecific antibody, V domains shown)
VH: B1 VH with A109F
VL: B1 VL with P91D
notes: as for B1
B10: M1088 (bispecific antibody, V domains shown)
VH: B1 VH with A109F
VL: B1 VL with S92G
notes: as for B1
B11: M1111 (bispecific antibody, V domains shown)
VH: B1 VH with T104A, A109F
VL: B1 VL
notes: as for B1
B12: M1128 (bispecific antibody, V domains shown)
VH: B1 VH with A109F
VL: B1 VL with Q98A
notes: as for B1
B13: M1130 (bispecific antibody, V domains shown)
VH: B1 VH with I50A, A109F
VL: B1 VL
notes: as for B1
B14: M1119 (bispecific antibody, V domains shown)
VH: B1 VH with A109F
VL: B1 VL with A88S
notes: as for B1
B15: M1038 (bispecific antibody, V domains shown)
VH: B1 VH with V2S, L4V, W47Y, D98N, L99V, A109F
VL: B1 VL with R90S, P91D, S92G
notes: as for B1
B16: M1127 (bispecific antibody, V domains shown)
VH: B1 VH with A109F
VL: B1 VL with F97A
notes: as for B1
B17: M1120 (bispecific antibody, V domains shown)
VH: B1 VH with A109F
VL: B1 VL with T89A
notes: as for B1
B18: M1090 (bispecific antibody, V domains shown)
VH: B1 VH with A109F
VL: B1 VL with R90K
notes: as for B1
B19: M1125 (bispecific antibody, V domains shown)
VH: B1 VH with A109F
VL: B1 VL with S95A
notes: as for B1
B20: M1040 (bispecific antibody, V domains shown)
VH: B1 VH with V2S, L4V, W47Y, S107H, A108Q, A109L
VL: B1 VL with R90S, P91D, S92G
notes: as for B1
B21: M1105 (bispecific antibody, V domains shown)
VH: B1 VH with D98A, A109F
VL: B1 VL
notes: as for B1
B22: M1114 (bispecific antibody, V domains shown)
VH: B1 VH with S107A, A109F
VL: B1 VL
notes: as for B1
B23: M1138 (bispecific antibody, V domains shown)
VH: B1 VH with Y58A, A109F
VL: B1 VL
notes: as for B1
B24: M1108 (bispecific antibody, V domains shown)
VH: B1 VH with Y101A, A109F
VL: B1 VL
notes: as for B1
B25: M1112 (bispecific antibody, V domains shown)
VH: B1 VH with T105A, A109F
VL: B1 VL
notes: as for B1
B26: M1101 (bispecific antibody, V domains shown)
VH: B1 VH with T56R, T57K, Y58R, A109F
VL: B1 VL
notes: as for B1
B27: M1117 (bispecific antibody, V domains shown)
VH: B1 VH with A109F, N110A
VL: B1 VL
notes: as for B1
B28: M1134 (bispecific antibody, V domains shown)
VH: B1 VH with G54A, A109F
VL: B1 VL
notes: as for B1
B29: M1123 (bispecific antibody, V domains shown)
VH: B1 VH with A109F
VL: B1 VL with S93A
notes: as for B1
B30: M1121 (bispecific antibody, V domains shown)
VH: B1 VH with A109F
VL: B1 VL with R90A
notes: as for B1
B31: M1100 (bispecific antibody, V domains shown)
VH: B1 VH with S107H, A108D, A109L
VL: B1 VL
notes: as for B1
B32: M1131 (bispecific antibody, V domains shown)
VH: B1 VH with V51A, A109F
VL: B1 VL
notes: as for B1
B33: M1124 (bispecific antibody, V domains shown)
VH: B1 VH with A109F
VL: B1 VL with G94A
notes: as for B1
B34: M1041 (bispecific antibody, V domains shown)
VH: B1 VH with V2S, L4V, W47Y, A109F
VL: B1 VL
notes: as for B1
B35: M1096 (bispecific antibody, V domains shown)
VH: B1 VH with Y106Q, A109F
VL: B1 VL
notes: as for B1
B36: M1099 (bispecific antibody, V domains shown)
VH: B1 VH with D98N, L99V, Y106Q, A109F
VL: B1 VL with R90S, P91D, S92G
notes: as for B1
B37: M1115 (bispecific antibody, V domains shown)
VH: B1 VH with A108S, A109F
VL: B1 VL
notes: as for B1
B38: M1051 (bispecific antibody, V domains shown)
VH: B1 VH with V2S, L4V, W47Y, T56R, T57K, Y58R, A109F
VL: B1 VL with R90S, P91D, S92G
notes: as for B1
B39: M1132 (bispecific antibody, V domains shown)
VH: B1 VH with S52A, A109F
VL: B1 VL
notes: as for B1
B40: M1137 (bispecific antibody, V domains shown)
VH: B1 VH with T57A, A109F
VL: B1 VL
notes: as for B1
B41: M1089 (bispecific antibody, V domains shown)
VH: B1 VH with A109F
VL: B1 VL with S92A
notes: as for B1
B42: M1136 (bispecific antibody, V domains shown)
VH: B1 VH with T56A, A109F
VL: B1 VL
notes: as for B1
B43: M1122 (bispecific antibody, V domains shown)
VH: B1 VH with A109F
VL: B1 VL with P91A
notes: as for B1
B44: M1086 (bispecific antibody, V domains shown)
VH: B1 VH with A109F
VL: B1 VL with R90S
notes: as for B1
B45: M1036 (bispecific antibody, V domains shown)
VH: B1 VH with V2S, L4V, W47Y, Y106Q, A109F
VL: B1 VL with R90S, P91D, S92G
notes: as for B1
B46: M1133 (bispecific antibody, V domains shown)
VH: B1 VH with S53A, A109F
VL: B1 VL
notes: as for B1
B47: M1109 (bispecific antibody, V domains shown)
VH: B1 VH with G102A, A109F
VL: B1 VL
notes: as for B1
B48: M1098 (bispecific antibody, V domains shown)
VH: B1 VH with D98N, L99V, Y106Q, A109F
VL: B1 VL
notes: as for B1

What follows are binders tested against T1, HLA-A2/MAGE-A4 complex, recombinant (HLA-A*02:01 extracellular domain, human b2m, MAGE-A4 peptide 230-239 …) (human, UniProt P04439 25-299 at identity 0.94); P61769 21-119) (assay: SPR, monovalent).
T1 construct: also called MAGE-A4 pMHC; MAGE-A4/HLA-A2 complex
In the case of B1, the Kd is reported as 3.88 nM. In the case of B2, the Kd is reported as 2.4 nM. In the case of B3, the Kd is reported as 9.65 nM. B4 gave a Kd of 1.45 nM. Binder B5 has a Kd of 0.4 nM. B6 showed a Kd of 0.46 nM. For B7, the Kd was 15.3 nM. Binder B8 has a Kd of 0.99 nM. With B9 the Kd was 0.82 nM. For B10, the Kd was 3.9 nM. For B11, the Kd was 0.65 nM. With B12 the Kd was 1.32 nM. B13 showed a Kd of 2.2 nM. With B14 the Kd was 0.91 nM. B15 showed a Kd of 3.6 nM. For B16, the Kd was 0.89 nM. For B17, the Kd was 1.21 nM. B18 showed a Kd of 1.8 nM. With B19 the Kd was 0.89 nM. Work on B20 yielded a Kd of 0.45 nM. Work on B21 yielded a Kd of 4.12 nM. Binder B22 has a Kd of 1.18 nM. For B23, the Kd was 3.1 nM. With B24 the Kd was 19 nM. For B25, the Kd was 35.9 nM. Work on B26 yielded a Kd of 1.69 nM. In the case of B27, the Kd is reported as 4.2 nM. B28 showed a Kd of 4.2 nM. In the case of B29, the Kd is reported as 0.79 nM. With B30 the Kd was 6.53 nM. In the case of B31, the Kd is reported as 0.66 nM. For B32, the Kd was 3.2 nM. B33 showed a Kd of 0.65 nM. Binder B34 has a Kd of 0.24 nM. With B35 the Kd was 3.23 nM. Binder B36 has a Kd of 2.13 nM. With B37 the Kd was 0.48 nM. Binder B38 has a Kd of 5 nM. Work on B39 yielded a Kd of 4.1 nM. Binder B40 has a Kd of 2.2 nM. In the case of B41, the Kd is reported as 1.34 nM and 0.79 nM. B42 gave a Kd of 2.7 nM. B43 gave a Kd of 0.75 nM. For B44, the Kd was 7.02 nM. Binder B45 has a Kd of 4.9 nM. Binder B46 has a Kd of 12.4 nM. B47 gave a Kd of 11.7 nM. B48 showed a Kd of 1.73 nM.
